Source: patent US20220316002

Molecular target: thiolated streptavidin (ProteinMods) (UniProt P22629)
Chain of UniProt P22629 (P22629 whole entry, looked up): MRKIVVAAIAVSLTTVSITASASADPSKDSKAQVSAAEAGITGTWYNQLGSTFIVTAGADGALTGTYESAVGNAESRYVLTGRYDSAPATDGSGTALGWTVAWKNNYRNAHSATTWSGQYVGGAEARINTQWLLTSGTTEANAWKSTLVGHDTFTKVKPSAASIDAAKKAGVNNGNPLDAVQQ

Gen II Φ29 DNA polymerase (D12A/D66A, biotinylated Avitag at the N terminus and second Avitag between E279 and D280)
highest peak of the single-molecule conductance distribution (STM, 4.5 nm gap): The 3 nS peak observed in FIG. 14B is now absent
